Data from paper PMC7588232, “Molecular mechanism for direct actin force-sensing by α-catenin” (eLife, 2020).

Biological target: F-actin (filamentous actin), unlabeled, from chicken skeletal muscle (chicken, UniProt P68139 1-377)
Assay: cryo-EM structure; 0.6 uM F-actin in KMEI applied to the grid, then 10 uM metavinculin ABD or 20 uM α-catenin ABD in KMEI, 25 °C; helical reconstruction (IHRSR, RELION 3.0)
Details: both partners purified

B1: H. sapiens α-catenin ABD (αE-catenin 664-906), not Halo-tagged (domain or fragment)
chain: IAGQSARAIMAQLPQEQKAKIAEQVASFQEEKSKLDAEVSKWDDSGNDIIVLAKQMCMIMMEMTDFTRGKGPLKNTSDVISAAKKIAEAGSRMDKLGRTIADHCPDSACKQDLLAYLQRIALYCHQLNICSKVKAEVQNLGGELVVSGVDSAMSLIQAAKNLMNAVVQTVKASYVASTKYQKSQGMASLNLPAVSWKMKAPEKKPLVKREKQDETQTKIKRASQKKHVNPVQALSEFKAMDSI
notes: residues 699-871 modelled in the map; Form used for cryo-EM; source: E. coli Rosetta2(DE3), purified (Ni-NTA, TEV cleavage, HiTrapQ, Superdex 200; no glycerol); not shown: His6, N-terminal, cleaved; Strep-tag, N-terminal, cleaved
stoichiometry N: 1

B2: H. sapiens metavinculin ABD (879-1134), not Halo-tagged (domain or fragment)
chain: EEKDEEFPEQKAGEVINQPMMMAARQLHDEARKWSSKPGIPAAEVGIGVVAEADAADAAGFPVPPDMEDDYEPELLLMPSNQPVNQPILAAAQSLHREATKWSSKGNDIIAAAKRMALLMAEMSRLVRGGSGTKRALIQCAKDIAKASDEVTRLAKEVAKQCTDKRIRTNLLQVCERIPTISTQLKILSTVKATMLGRTNISDEESEQATEMLVHNAQNLMQSVKETVREAEAASIKIRTDAGFTLRWVRKTPWYQ
notes: residues 981-1131 modelled in the map; Form used for cryo-EM; source: E. coli Rosetta2(DE3), purified (Ni-NTA, TEV cleavage, HiTrapQ, Superdex 200; no glycerol); not shown: His6, N-terminal, cleaved; Strep-tag, N-terminal, cleaved
stoichiometry N: 1
